Test results published in the supplement of paper PMC9112550, “Optimization of the antimicrobial peptide Bac7 by deep mutational scanning” (BMC Biology, 2022).

Tested on: Escherichia coli TOP10
Test: shrunken log2 fold change of peptide-encoding DNA abundance (4.5 h post-induction vs induction); higher = less antimicrobial activity (less host growth inhibition)
Details: time post-induction: 4.5 h; library: site-saturation at positions 5, 18, 19, 20
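Note: peptides expressed intracellularly from a pBAD plasmid library in pooled LB shake-flask culture, induced with 0.3% L-arabinose, DNA abundance read by NGS, three biological replicates, DESeq2 with apeglm shrinkage.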

Sequence | shrunken log2 fold change
RRIRCRPPRLPRPRPRPTMTPRP | 0.106
RRIRNRPPRLPRPRPRPNLCPRP | -0.0109
RRIRVRPPRLPRPRPRPAPYPRP | -0.00665
RRIRRRPPRLPRPRPRPRDEPRP | 0.48
RRIRARPPRLPRPRPRPDCDPRP | 0.214
RRIRQRPPRLPRPRPRPYWTPRP | -0.496
RRIRFRPPRLPRPRPRPHYWPRP | -0.505
RRIRHRPPRLPRPRPRPPFSPRP | -0.166
RRIRKRPPRLPRPRPRPLNLPRP | -0.123
RRIRYRPPRLPRPRPRPMDNPRP | -0.0386
RRIRSRPPRLPRPRPRPNPKPRP | 0.0189
RRIRCRPPRLPRPRPRPFSSPRP | -0.24
RRIRYRPPRLPRPRPRPLDTPRP | -0.429
RRIRLRPPRLPRPRPRPGCKPRP | -0.0977
RRIRARPPRLPRPRPRPLGRPRP | 0.321
RRIRIRPPRLPRPRPRPWGLPRP | -0.192
RRIRMRPPRLPRPRPRPALLPRP | 0.727
RRIRLRPPRLPRPRPRPNPQPRP | -0.2
RRIRCRPPRLPRPRPRPWSLPRP | -1.5
RRIRWRPPRLPRPRPRPKATPRP | 0.264
RRIRCRPPRLPRPRPRPGCIPRP | -0.385
RRIRIRPPRLPRPRPRPIRRPRP | 0.00942
RRIRWRPPRLPRPRPRPSEYPRP | -0.221
RRIRNRPPRLPRPRPRPRDSPRP | 0.0829
RRIRDRPPRLPRPRPRPLKHPRP | -0.927

Sequence | shrunken log2 fold change
RRIRVRPPRLPRPRPRPPNQPRP | 0.184
RRIRGRPPRLPRPRPRPLKEPRP | 0.343
RRIRHRPPRLPRPRPRPQDMPRP | -0.129
RRIRLRPPRLPRPRPRPKCDPRP | -0.461
RRIRPRPPRLPRPRPRPLDTPRP | 1
RRIRLRPPRLPRPRPRPYLLPRP | -0.248
RRIRQRPPRLPRPRPRPMYCPRP | -0.526
RRIRWRPPRLPRPRPRPQAMPRP | 0.179
RRIRARPPRLPRPRPRPQGPPRP | -0.0931
RRIRNRPPRLPRPRPRPAPIPRP | 0.169
RRIRLRPPRLPRPRPRPTGLPRP | 0.177
RRIRWRPPRLPRPRPRPCVMPRP | 0.0583
RRIRYRPPRLPRPRPRPQNRPRP | -0.0755
RRIRMRPPRLPRPRPRPTEVPRP | 0.598
RRIRIRPPRLPRPRPRPDPGPRP | -0.0404
RRIRPRPPRLPRPRPRPMWMPRP | 0.000224
RRIRCRPPRLPRPRPRPSQLPRP | -0.357
RRIRIRPPRLPRPRPRPGPAPRP | 0.383
RRIRRRPPRLPRPRPRPHQIPRP | 0.0553
RRIRWRPPRLPRPRPRPKMWPRP | 0.737
RRIRTRPPRLPRPRPRPNDTPRP | -0.387
RRIRKRPPRLPRPRPRPKVIPRP | 0.156
RRIRGRPPRLPRPRPRPGYMPRP | -0.0736
RRIRVRPPRLPRPRPRPAFSPRP | 0.104
RRIRFRPPRLPRPRPRPWWRPRP | -0.471

Sequence | shrunken log2 fold change
RRIRNRPPRLPRPRPRPKINPRP | -0.387
RRIRDRPPRLPRPRPRPMIQPRP | -0.103
RRIRPRPPRLPRPRPRPYLAPRP | -0.528
RRIRPRPPRLPRPRPRPRRSPRP | 0.124
RRIRTRPPRLPRPRPRPGEHPRP | -0.187
RRIRDRPPRLPRPRPRPVCSPRP | 0.222
RRIRYRPPRLPRPRPRPRGQPRP | 0.0255
RRIRKRPPRLPRPRPRPCYYPRP | -0.48
RRIRGRPPRLPRPRPRPDVGPRP | 0.434
RRIRCRPPRLPRPRPRPVTSPRP | -0.0245
RRIRKRPPRLPRPRPRPFKLPRP | 0.0306
RRIRHRPPRLPRPRPRPIWTPRP | -0.311
RRIRDRPPRLPRPRPRPVHPPRP | 0.184
RRIRHRPPRLPRPRPRPKMSPRP | 0.166
RRIRIRPPRLPRPRPRPQPCPRP | -0.0143
RRIRNRPPRLPRPRPRPNFWPRP | 0.0138
RRIRMRPPRLPRPRPRPTDMPRP | 0.0845
RRIRMRPPRLPRPRPRPLPQPRP | 0.742
RRIRYRPPRLPRPRPRPGSMPRP | -0.182
RRIRHRPPRLPRPRPRPYVQPRP | -1.29
RRIRQRPPRLPRPRPRPFDKPRP | -0.0121
RRIRWRPPRLPRPRPRPACCPRP | 0.454
RRIRSRPPRLPRPRPRPFVKPRP | -0.222
RRIRNRPPRLPRPRPRPKRMPRP | -0.056
RRIRTRPPRLPRPRPRPMFMPRP | 0.000513

Sequence | shrunken log2 fold change
RRIRDRPPRLPRPRPRPRVQPRP | -0.183
RRIRNRPPRLPRPRPRPAVVPRP | 0.251
RRIRCRPPRLPRPRPRPDLQPRP | -0.00569
RRIRMRPPRLPRPRPRPYDLPRP | -0.242
RRIRYRPPRLPRPRPRPMMPPRP | -0.0554
RRIRVRPPRLPRPRPRPQWWPRP | 0.0756
RRIRTRPPRLPRPRPRPAQHPRP | 0.0266
RRIRMRPPRLPRPRPRPDEVPRP | 0.00989
RRIRIRPPRLPRPRPRPCDMPRP | -0.511
RRIRARPPRLPRPRPRPGWCPRP | 0.465
RRIRWRPPRLPRPRPRPNTCPRP | -0.777
RRIRPRPPRLPRPRPRPYIDPRP | -0.331
RRIRCRPPRLPRPRPRPYIVPRP | -0.168
RRIRPRPPRLPRPRPRPVAMPRP | 0.0478
RRIRDRPPRLPRPRPRPEKMPRP | -0.00458
RRIRFRPPRLPRPRPRPDHCPRP | -0.0831
RRIRKRPPRLPRPRPRPASAPRP | 0.59
RRIRIRPPRLPRPRPRPVPSPRP | -0.217
RRIRGRPPRLPRPRPRPGMDPRP | 1.06
RRIRTRPPRLPRPRPRPKRQPRP | 0.562
RRIRKRPPRLPRPRPRPAINPRP | 0.126
RRIRWRPPRLPRPRPRPKMIPRP | -0.22
RRIRPRPPRLPRPRPRPNWFPRP | 0.283
RRIRVRPPRLPRPRPRPLEPPRP | 0.236
RRIRVRPPRLPRPRPRPTVAPRP | 0.37

Sequence | shrunken log2 fold change
RRIRQRPPRLPRPRPRPEHTPRP | -0.0628
RRIRCRPPRLPRPRPRPVRAPRP | 0.486
RRIRGRPPRLPRPRPRPWYVPRP | -2.24
RRIRWRPPRLPRPRPRPWVSPRP | -0.0613
RRIRHRPPRLPRPRPRPVQRPRP | -0.0182
RRIRHRPPRLPRPRPRPCCVPRP | -0.193
RRIRNRPPRLPRPRPRPNRPPRP | -0.0547
RRIRRRPPRLPRPRPRPAGMPRP | 0.102
RRIRLRPPRLPRPRPRPCGRPRP | 0.147
RRIRFRPPRLPRPRPRPSNAPRP | -0.165
RRIRMRPPRLPRPRPRPENRPRP | 0.247
RRIRQRPPRLPRPRPRPNVTPRP | 0.0508
RRIRGRPPRLPRPRPRPMHDPRP | 0.361
RRIRFRPPRLPRPRPRPKHQPRP | -0.131
RRIRPRPPRLPRPRPRPHTWPRP | -0.0512
RRIRYRPPRLPRPRPRPYCLPRP | -1.15
RRIRLRPPRLPRPRPRPNPIPRP | -0.237
RRIRWRPPRLPRPRPRPEDNPRP | 0.547
RRIRWRPPRLPRPRPRPCGHPRP | 0.108
RRIRHRPPRLPRPRPRPVFDPRP | -0.0994
RRIRMRPPRLPRPRPRPLYHPRP | -0.0416
RRIRKRPPRLPRPRPRPEVFPRP | 0.403
RRIRARPPRLPRPRPRPGQGPRP | 0.204
RRIRFRPPRLPRPRPRPWLIPRP | -0.441
RRIRTRPPRLPRPRPRPLHRPRP | -0.287
